In patent US20030157101A1, “Immunogenic ALK peptides” (priority 2001, published 2003):

Target: T1, HLA-A*0201 molecules on TAP-deficient T2 cells (human)
T1 construct: Peptide-receptive class I molecule on T2 cells; also called HLA-A2.1; HLA-A2
Experiment: T2 cell HLA-A*0201 stabilisation, 100 uM peptide, flow cytometry with mAb BB7.2; mean of 4 experiments ± SEM
Procedure: T2 cells were incubated with 100 μM of peptide in serum-free RPMI 1640 supplemented with 5 μg/ml of human β₂m (Fluka, Buchs, Germany) for 18 hrs at 37° C.

B1: ALK peptide p621-629 (SLTANMKEV) (peptide)
peptide: SLTANMKEV
notes: C-terminal portion of the protein; also called p621-29
FI (Fluorescence Index): 3.5 ratio (sample / irrelevant-peptide control)
